Residue numbers refer to the chain shown, from its start. One block for each binder: values may come before it.
Tests used:
[1] = molecular target: B7-H3-His recombinant protein (UniProt Q5ZPR3); assay: SPR; B7-H3-His on CM5 chip, antibody as mobile phase
[2] = molecular target: T1, murine 2Ig-B7-H3 (m2IgB7H3) expressed on Raji cells (mouse, UniProt Q8VE98 29-316); assay: flow cytometry on m2IgB7H3-Raji cells
T1 construct: whole, on cells; also called m2IgB7H3-Raji; mB7-H3-Raji
T1 sequence (looked up): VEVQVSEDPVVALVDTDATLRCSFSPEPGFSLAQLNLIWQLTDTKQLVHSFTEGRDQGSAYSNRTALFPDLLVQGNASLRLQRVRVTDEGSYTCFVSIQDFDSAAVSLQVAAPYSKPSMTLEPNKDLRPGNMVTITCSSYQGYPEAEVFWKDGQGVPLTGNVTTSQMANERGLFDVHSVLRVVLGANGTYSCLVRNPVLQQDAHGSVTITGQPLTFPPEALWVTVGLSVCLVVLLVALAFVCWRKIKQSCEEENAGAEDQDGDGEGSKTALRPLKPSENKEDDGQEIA

[3] = molecular target: T2, human 4Ig-B7-H3 (h4IgB7H3) expressed on Raji cells (human, UniProt Q5ZPR3 29-534); assay: flow cytometry on h4IgB7H3-Raji cells
T2 construct: whole, on cells; also called h4IgB7H3-Raji
T2 sequence (looked up): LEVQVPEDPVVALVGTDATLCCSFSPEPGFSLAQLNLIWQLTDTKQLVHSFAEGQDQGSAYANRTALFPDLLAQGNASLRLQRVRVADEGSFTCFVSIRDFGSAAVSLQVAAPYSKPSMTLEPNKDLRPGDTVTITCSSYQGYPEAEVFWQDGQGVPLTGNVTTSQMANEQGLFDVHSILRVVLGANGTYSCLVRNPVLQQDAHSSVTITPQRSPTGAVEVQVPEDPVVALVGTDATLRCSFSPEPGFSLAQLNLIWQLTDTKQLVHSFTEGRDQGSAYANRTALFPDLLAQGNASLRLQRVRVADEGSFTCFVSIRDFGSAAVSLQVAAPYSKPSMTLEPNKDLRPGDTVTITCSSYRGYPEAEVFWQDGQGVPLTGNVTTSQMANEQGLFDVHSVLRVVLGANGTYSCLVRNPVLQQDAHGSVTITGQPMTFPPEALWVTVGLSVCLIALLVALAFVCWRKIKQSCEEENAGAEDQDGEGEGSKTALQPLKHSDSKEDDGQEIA

Kd [1]: 114 nM | koff [1]: 0.00282 s⁻¹ | kon [1]: 24800 M⁻¹ s⁻¹ | binding result [2]: binds | binding result [3]: binds
B1: humanized B7-H3 antibody T1H1-T1L1 (αhB7-H3 antibody) (antibody, V domains shown)
VH: EVQLVESGGGLIQPGGSLRLSCAASGFTFSTYVMSWVRQAPGKGLEWVSSILSGGTSFYADNVKGRFTISRDNSKNTLYLQMNSLRAEDTAVYYCARRYGHDHYYAMDYWGQGTLVTVSS
VL: EIVLTQSPATLSLSPGERATLSCAASSSVSSSYLHWYQQKPGLAPRLLIYSTSNLASGIPDRFSGSGSGTDFTLTISRLEPEDFAVYYCQQYHRSPWTFGGGTKVEIK
notes: They were subcloned into the pcDNA3.1-IgG1Fc (heavy) and pcDNA3.1-IgKc (light) expression vectors; The antibody was detected with anti-human IgG; also called αhB7-H3 Ab; B7-H3 T1H1-T1L1

Kd [1]: 72.8 nM | koff [1]: 0.00289 s⁻¹ | kon [1]: 39700 M⁻¹ s⁻¹
B2: humanized B7-H3 antibody T2H1-T2L1 (βhB7-H3 antibody) (antibody, V domains shown)
VH: B1 VH with L11V, I12V, Q13R, S74A, T77S, V92L, Y94H, L115T
VL: DIQMTQSPSTLSASVGDRVTITCAASSSVSSSYLHWYQQKPGKAPKLLIYSTSNLASGVPSRFSGSGSGTEFTLTISSLQPDDFATYYCQQYHRSPWTFGQGTKLEIK

Kd [1]: 70.8 nM | koff [1]: 0.00258 s⁻¹ | kon [1]: 36400 M⁻¹ s⁻¹
B3: mouse anti-human mB7-H3 antibody (antibody, V domains shown)
VH: EVTLVESGGGLVKPGGSLKLSCAASGFTFSTYVMSWVRQTPEKRLEWVASILSGGTSFYADNVKGRFTISRENARNILYLQMSSLKSEDTAMYYCVRRYGHDHYYAMDYWGQGTSVTVSS
VL: QIVLTQSPANMSASLGERVTMTCAASSSVSSSYLHWYQQKPGSSPKLWIYSTSNLASGVPGRFNGSGSGTSYSLTISSMEAEDAATYYCHQYHRSPWTFGGGTKLEIK
